Paper doi:10.1101/481457

Biological target: human HSF2-YFP (human) (UniProt Q03933)
Experiment: fluorescent three-hybrid assay

human HSF2-YFP (human), sequence (Q03933 whole entry): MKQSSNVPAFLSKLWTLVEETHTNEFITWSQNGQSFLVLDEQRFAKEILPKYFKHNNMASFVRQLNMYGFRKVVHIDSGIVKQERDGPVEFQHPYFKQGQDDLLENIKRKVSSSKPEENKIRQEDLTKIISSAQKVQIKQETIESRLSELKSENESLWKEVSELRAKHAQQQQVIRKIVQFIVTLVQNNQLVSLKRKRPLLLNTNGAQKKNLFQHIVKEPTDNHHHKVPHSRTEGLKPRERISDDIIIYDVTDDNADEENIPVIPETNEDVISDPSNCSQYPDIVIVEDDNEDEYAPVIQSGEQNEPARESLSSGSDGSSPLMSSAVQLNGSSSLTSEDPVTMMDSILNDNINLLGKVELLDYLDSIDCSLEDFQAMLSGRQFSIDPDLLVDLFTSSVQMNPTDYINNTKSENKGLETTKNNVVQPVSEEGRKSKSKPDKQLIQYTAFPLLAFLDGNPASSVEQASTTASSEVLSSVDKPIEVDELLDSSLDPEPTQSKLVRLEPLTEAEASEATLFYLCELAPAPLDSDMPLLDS
CBP-HA, Q92793 1-2442 (natural protein), sequence (Q92793 whole entry): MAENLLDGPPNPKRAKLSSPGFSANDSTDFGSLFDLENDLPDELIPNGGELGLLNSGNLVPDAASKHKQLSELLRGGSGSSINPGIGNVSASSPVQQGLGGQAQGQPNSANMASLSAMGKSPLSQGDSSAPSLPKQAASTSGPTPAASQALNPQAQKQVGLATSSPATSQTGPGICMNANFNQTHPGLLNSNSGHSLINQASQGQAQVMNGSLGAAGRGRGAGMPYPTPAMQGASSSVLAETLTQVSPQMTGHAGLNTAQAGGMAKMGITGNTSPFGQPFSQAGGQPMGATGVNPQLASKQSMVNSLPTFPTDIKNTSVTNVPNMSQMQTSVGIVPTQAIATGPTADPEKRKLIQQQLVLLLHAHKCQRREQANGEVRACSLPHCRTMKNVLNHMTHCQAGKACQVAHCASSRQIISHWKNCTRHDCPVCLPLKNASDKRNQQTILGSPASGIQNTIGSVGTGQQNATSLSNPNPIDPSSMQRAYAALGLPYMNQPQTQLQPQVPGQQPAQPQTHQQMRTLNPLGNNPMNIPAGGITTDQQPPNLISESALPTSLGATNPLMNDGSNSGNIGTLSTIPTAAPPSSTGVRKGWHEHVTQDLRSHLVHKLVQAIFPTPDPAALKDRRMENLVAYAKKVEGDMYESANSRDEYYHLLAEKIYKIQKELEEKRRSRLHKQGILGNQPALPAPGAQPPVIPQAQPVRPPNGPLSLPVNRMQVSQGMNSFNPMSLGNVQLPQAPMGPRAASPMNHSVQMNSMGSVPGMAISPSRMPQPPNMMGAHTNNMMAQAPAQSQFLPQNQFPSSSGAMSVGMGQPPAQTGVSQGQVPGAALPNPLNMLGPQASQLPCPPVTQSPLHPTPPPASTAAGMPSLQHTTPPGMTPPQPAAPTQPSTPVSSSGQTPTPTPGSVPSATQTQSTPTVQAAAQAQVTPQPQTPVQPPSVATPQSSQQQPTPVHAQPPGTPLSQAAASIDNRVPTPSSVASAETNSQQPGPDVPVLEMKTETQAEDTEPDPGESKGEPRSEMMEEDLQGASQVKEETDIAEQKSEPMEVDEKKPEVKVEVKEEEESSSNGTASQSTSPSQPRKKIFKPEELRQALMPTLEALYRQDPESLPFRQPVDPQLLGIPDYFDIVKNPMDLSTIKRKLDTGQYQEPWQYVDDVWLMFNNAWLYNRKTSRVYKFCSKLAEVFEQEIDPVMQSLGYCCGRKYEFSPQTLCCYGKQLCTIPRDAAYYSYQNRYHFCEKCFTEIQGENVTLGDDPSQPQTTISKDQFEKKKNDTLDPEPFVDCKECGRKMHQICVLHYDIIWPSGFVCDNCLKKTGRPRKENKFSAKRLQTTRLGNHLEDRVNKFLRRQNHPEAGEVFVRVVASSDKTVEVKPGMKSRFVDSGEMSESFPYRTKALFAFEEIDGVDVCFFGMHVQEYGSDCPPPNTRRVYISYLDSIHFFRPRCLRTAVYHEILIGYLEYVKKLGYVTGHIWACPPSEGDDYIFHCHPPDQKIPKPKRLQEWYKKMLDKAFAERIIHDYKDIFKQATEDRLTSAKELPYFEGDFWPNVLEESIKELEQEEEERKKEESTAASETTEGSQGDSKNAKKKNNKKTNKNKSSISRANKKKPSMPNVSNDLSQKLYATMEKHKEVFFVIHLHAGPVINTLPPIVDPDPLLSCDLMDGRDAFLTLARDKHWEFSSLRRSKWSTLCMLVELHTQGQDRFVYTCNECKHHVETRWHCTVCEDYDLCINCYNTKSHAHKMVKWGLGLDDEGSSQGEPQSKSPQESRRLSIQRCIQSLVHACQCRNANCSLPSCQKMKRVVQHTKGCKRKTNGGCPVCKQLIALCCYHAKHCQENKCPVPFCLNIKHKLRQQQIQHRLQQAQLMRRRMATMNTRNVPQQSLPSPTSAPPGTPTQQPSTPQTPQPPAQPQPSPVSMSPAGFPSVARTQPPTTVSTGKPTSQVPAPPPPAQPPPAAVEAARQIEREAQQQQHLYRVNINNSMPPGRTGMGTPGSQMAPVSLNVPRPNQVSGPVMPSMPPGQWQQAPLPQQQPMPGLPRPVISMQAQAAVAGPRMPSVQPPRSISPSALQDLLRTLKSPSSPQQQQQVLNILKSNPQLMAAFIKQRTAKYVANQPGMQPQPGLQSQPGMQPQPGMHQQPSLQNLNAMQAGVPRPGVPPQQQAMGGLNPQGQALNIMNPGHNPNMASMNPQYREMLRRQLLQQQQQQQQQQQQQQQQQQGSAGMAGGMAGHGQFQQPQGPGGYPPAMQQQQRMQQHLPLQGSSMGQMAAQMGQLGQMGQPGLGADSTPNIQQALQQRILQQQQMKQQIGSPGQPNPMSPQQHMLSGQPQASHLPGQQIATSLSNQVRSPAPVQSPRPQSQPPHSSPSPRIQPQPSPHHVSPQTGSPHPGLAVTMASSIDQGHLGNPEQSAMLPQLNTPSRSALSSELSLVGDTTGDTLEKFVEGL

Substance | percent of cells showing co-recruitment to the HSF2-YFP focus [%] | percent of cells showing co-recruitment with HSF2-YFP [%]
CBP-HA, Q92793 1-2442 (natural protein) | 68.4 | –
EP300-HA, Q09472 1-2414 | 48.6 | –
endogenous CBP of BHK cells (natural protein) | – | 43.9
